Data from the nanobody polyreactivity screen of Harvey et al. (2022).

Assay: yeast display, Sf9 membrane polyspecificity reagent, FACS + sequencing; frameworks hold sequencing errors
Procedure, shortened: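 Using colony PCR, genes from sorted yeast display clones were amplified, then sequenced on MiSeq at 2 × 250 and filtered by CDR length. The clones had been stained with 10% biotinylated, detergent-solubilized Sf9 membrane reagent for 1 hour at 4 °C and sorted by FACS into low and high (top ~1%) gates on anti-HA and streptavidin fluorescence. Polyreactivity labels come from the gate of origin.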

Sequence	polyreactivity (PSR sort gate)
QVQLVESGGGLVQAGGSLRLSCAASGSTFQSYAMGWYRQAPGKERELVARIRNSGGSTYYADSVKGRFTISRDNAKNTVYLQMNSLKPEDTAVYYCNARYVSRYLTYQYDYWGQGTQVTVSS	high polyreactivity
QVQLVESGGGLVQAGGSLSLSCAASGRIFGYYAMGGYRQAPGKERELVAAITTGGNTYYAESVKGRFTISRDNAKNTVNLQMNSLKPEDTAVYYCNKRSYAYYSYAVFTWVDYWGQGTQVTVSS	low polyreactivity
QVQLVESGGGLVQAGGSLRLSCAASGRIFRRYAMGWYRQAPGKERELVAAISTRGGSTYYADSVKGRFTISRDNAKNTVYLPMNSLKPEDTAVYYCAAGRDPGYNNDDYWGQGTQVTVSS	high polyreactivity
QVQLVESGGGLVQAGGSLRLSCAASGSTFSDNARGWYRQAPGKERELVAAIKETGGSTYYADSVKGRCTISRDNAKNTVYLQMNSLKPEDTAVYYCNADIDPYGATYAIEYDYWGQGTQVTVSS	low polyreactivity
QVQLVDSGGGLVQAGGSLRLSCAASGRTFWYYDMGWYRQAPGKERELVATINNVGSTHYADSVKGRFTISRDNAKNTVYLQMNSLNPEDTAVYYCARASYGKMDYWGQGTQLTVSS	high polyreactivity
QVQLVESGGGLVQAGGSLRLSCAASGRIFYRYVMGWYREAPGKERELVAAIRNSGGSTYYADSVKGRFTISRDNAKNTVYLQMNSLKPEDTAVYYCAKRYGTSFYVGSAKIGYDYWGQGTQVTVSS	high polyreactivity
QVQLVESGGGLVQAGGSLRLICAASGFIFNKNAMGWYRQAPGKERELVAAISQIGGTTYYADSVKGRFTISRVNAKNTVYLQMNSLKPEDTSVYYCAASRRVQSDYWGQGTQVTVSS	high polyreactivity
QVQLVESGGGLVQAGGSLRLSCAASGNTVFKNAMVWYRQAPGKERELVAAISKRGGSTYYADSVKGRFTISRDNAKNTVYIQMNSLIPEDTAVYYCAADTFGVYASTYDYWGQGTQVTVSS	high polyreactivity
QFQLVESGGGLDQAGGSLRLSCAASGFTLNRNAMGWYRQAPGKETELVAAITRGGRTYYADSVKGRFTISRDNAKNTVYLQMNSLKPEDTAVYYCARTVGYRTLLESDSWGQGTQVTVSS	high polyreactivity
QVQLVESGGGLVQAGGSLRLSCAASGFIFRYYAMGWSRQAPGKERELVAAITSGGRTSYADSVKGRFTISRDNAKNTVYLQMNSLKPEDTAVYYCAKDSYRQRYGSMEYWGQGTQVTVSS	high polyreactivity
QVQLVESGGGLVQAGGSLRLSCAPSGSTFYYYAMGWYRQAPGKERELVAAITYRGGTYYADSVKGRFTISRDNAKNTVYLQMNSLKPEDTAVYYCAAPLSRIMDYWGQGTQVTVSS	high polyreactivity
QVQLEESGGGLVQAGGSLRLSCAASGRIIRINPMGLYRQAPGKERELVAAITRGGTTYADSVKGRFTFSRDNAKNTVYLQMNSLKPEDTAVYYCNARTGRSPTGFLYWGQGTQVTVSS	high polyreactivity
QVQLVESGGGLVQAGGSLRLSCAASGFIFHTNTMGWYRQAPGKERELVAAISSGGRTNYADSVKGRFTISRDNAKNTVYLQMNSLKPEDTAVYYCAARVGSGFDSWGQGTQVTVSS	high polyreactivity
QVQLVESGGGLVQAGGSLRLSCAASGSIFKYYAMGWYRQAPGKERELVASITSGGSTNYADSVKGRFTISRDNAKNTVYLQMNSLKPEDTAVYYCAADGVRVPRREYDYWGQGTQVTVSS	low polyreactivity
QVQLVESGGCLVQAGGSLRLSCAASGITLRYYAMGWYRQAPGKERELDAAISSGGRTYYADSVKGRFTISRDNATKTVYLPLNSLKPEETAVYYCNVVWSVTYDYWGHGTQVTVSS	high polyreactivity
QVQLVESGGGLVQAGGSLRLSCSASRSTFYGNAMGWYRQAPGKERELVAAISSGDITYYADSVKGRFTISRDNAKNTVYLQMNSLKPEDTAVYYCATDYGYSWYDYWGQGTQVTVSS	low polyreactivity
QVQLVESGGGLVQAGGSLRLSCAASGSIFYAYAMGWYRQAPGKESELVAVISRGGITNYADSVKGRFTISRDNAKNTVYLQMNSLKPEDTAVYYCAAATSAWGYLRRYGYWGQGTQVTVSS	low polyreactivity
QVQLVESGGGLVQAGGSLRLSCAASGYIFHSYMGSYRQAPGKETELVAAITSGGSTYYADSVKGRFTISRDNAKNTFFLKMNSLKPEDTAVYYCGAGWWYYLHMDYWGQGTQVTVSS	high polyreactivity
KVQLVESGGALVQAGGSLRLSCAPSGSIFWNNAMGWYRQAPGKERELVAGISSAGSTNYADSVKGRFTISRDNAKNTVYLQLKSQKPEDTAVYYCAASYFSEYVWLRSYVRYYYWVQGTQVTVSS	low polyreactivity
QVQLVESGGGLVQAGGSLRLSCAASGGTFYGYAMGWYRQAPGKERELVAASNYRGGRTYYADSVKGRFTISRDNAKNTGYLQMNSLKPEDTAVYYCAATSYRLDGYDYWGQGTQVTVSS	high polyreactivity
QVQLVESGGGLLQAGGSLRLSCAASGSIFGSYVMGWYRQAPGKERELVAAITASGGSTYYADSVKGRFTISRDTAKNTVYLQMNSLKPEDTAVYYCATKRTWPVGEMYYWGQGTQVTVSS	high polyreactivity
QVQLVESGGGLVQAGGSLRLICAASGRIFGYNAMGWSRQAPGKERELVAAIRGSGSTYYADSVKGRFTISRDNAKNTVYLQMNSLKPEDTAVYYCAARTSSTKYYYWGQGTQVTVSS	high polyreactivity
QVQLVESGGGLVQAGGSLRLSCAASGFIMDNYAMGCYRQAHGKERELVAAISGSGGSTYYADSVKGRFTISRDNAKNTVYLQMNSLKPEDTAVYYCNRDRLLRQYDYWGQGTQVTVSS	high polyreactivity
QVQLVESGGGLVQAGGSLRLSCAASGRIFRYNTMGWYRQAPGKERELVADITSSDSSTYYADSVKGRFTISRDNAKNTVYLQMNSLKPEDTAVYYCAARDSGYGWRYYYWGQGTQVTVSS	low polyreactivity
QVQLEESGGGLVQAGASLRLSCAASGFIFTSYAMGWYRQAPGKEREFVAASSRRGGSTYYADSVKGRFTISRDNAKNTVYLQMNILKPEYTAVYYCAADPKQHAGYEYWGQGTQVTVSS	high polyreactivity
QVQLVESGGGLVQAGGSLRLSCAASGLTFYTNAMGWYRQAPGKERELVAAITSSGGRTYYADSVKGRFTISRDNAKNTVYLQMNILKPEDTAVYYCAADALRPRIPEMYYWGQGTQVTVSS	high polyreactivity
QVQLVESGGGLVQAGGRLRLSCAASGRTFIPYAMGWYRQAPGNERELVAAIRNGGSTNYADSVKGRFTISRDIAKNTVYLQMNSLKPEDTAVYYCNADLPVYVDYINGCYGYWGQGTQVTVSS	low polyreactivity
QVQLVESGGGLVQAGGSLRLSCAASGIIFSGYVMGWYGQAPGKERELVAAISRSGGRTFYADSVKGRFTISRDNAMNTVYLQMNSLKPEDTAVYYCAKVPSYVRGHGYQYDHWGQGTQVTVSS	high polyreactivity
QVQHVESGGGLVQAGGSLRLSCAASGFIFARNAMGWYRQAPGKERELVAAITWSGGSTYADSVKGRFTISRDNAKNTVYLQMNSLKPEDTAVYYCAADSYPAYLGFVGFDYWGQGTQVTVSS	low polyreactivity
QVQLVESGGGLVQAGGSLRLSCAASGSISTVNVMGWYRQAPGKERELVAAISSGTSTHYADSVKVRFTISRDNAKNTVYLQMNSLKPEDTAVYYCAAYFYRQYLYFLYEYDYWGQGTQVTVSS	low polyreactivity
